{
  "source": "paper PMC2213610",
  "biological_target": "VASP, endogenous in human endothelial cells (human (endogenous in EA.hy926 and ECV304)) (UniProt P50552)",
  "sequence (P50552 whole entry)": "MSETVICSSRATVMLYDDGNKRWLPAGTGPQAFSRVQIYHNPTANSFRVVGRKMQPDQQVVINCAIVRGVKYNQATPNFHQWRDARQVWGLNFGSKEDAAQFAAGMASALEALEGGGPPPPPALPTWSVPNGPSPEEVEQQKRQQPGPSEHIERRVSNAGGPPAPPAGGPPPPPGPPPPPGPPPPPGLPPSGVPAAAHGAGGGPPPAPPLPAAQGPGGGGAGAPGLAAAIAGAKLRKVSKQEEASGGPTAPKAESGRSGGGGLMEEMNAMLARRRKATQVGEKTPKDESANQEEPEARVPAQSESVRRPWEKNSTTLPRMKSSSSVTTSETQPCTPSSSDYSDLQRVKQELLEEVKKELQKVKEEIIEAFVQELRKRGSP",
  "assay": "co-IP",
  "data": [
    {"substance": "αII-spectrin (SPCN), endogenous in human endothelial cells, Q13813 1-2472", "values": [
      {"measurement": "percent of cellular SPCN coprecipitated", "result": "> 70", "unit": "%"}
    ]}
  ]
}
